Results from PMC4598119, “Cancer-Related NEET Proteins Transfer 2Fe-2S Clusters to Anamorsin, a Protein Required for Cytosolic Iron-Sulfur Cluster Biogenesis” (PLoS ONE, 2015).

Columns and labels:
[1] = molecular target: T1, holo-Anamorsin (prepared via cluster transfer from NAF-1), biotinylated (human, UniProt Q6FI81 1-312, biotin); assay: BLI; biotinylated holo-Anamorsin (prepared via cluster transfer) immobilised on streptavidin biosensors; 16 uM holo-NAF-1 or 32 uM holo-mNT; association 900 s, dissociation 1800 s; 2:1 heterogeneous ligand model; average of two trials; conditions: both partners purified
T1 construct: Anamorsin (CIAPIN-1), human cDNA (Abgent) subcloned into pET28-a(+) between NdeI and XhoI; same chain as m3; also called post-cluster transfer Anamorsin; CIAPIN-1; source: E. coli BL-21 Codon Plus (DE3) RIL, purified; apo form loaded by cluster transfer from NAF-1, then purified from NAF-1 on HiTrap Q anion exchange
T1 sequence (Q6FI81 whole entry): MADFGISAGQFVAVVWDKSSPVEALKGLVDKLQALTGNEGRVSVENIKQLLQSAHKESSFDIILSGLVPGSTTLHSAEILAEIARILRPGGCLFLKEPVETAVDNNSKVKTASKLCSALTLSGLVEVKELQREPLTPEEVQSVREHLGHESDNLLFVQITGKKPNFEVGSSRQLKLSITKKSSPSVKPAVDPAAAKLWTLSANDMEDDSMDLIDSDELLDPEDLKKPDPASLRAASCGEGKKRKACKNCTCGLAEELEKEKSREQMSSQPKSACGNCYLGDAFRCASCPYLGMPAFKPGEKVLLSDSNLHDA

[2] = molecular target: T2, apo-Anamorsin (cytokine induced apoptosis inhibitor-1), biotinylated (human, UniProt Q6FI81 1-312, biotin (EZ-Link Sulfo-NHS-LC-biotin, 2:1 molar ratio of reagent to protein)); assay: BLI; Octet Red96; biotinylated apo-Anamorsin (3.5 uM) immobilised on streptavidin biosensors; holo-NEET in solution; 50 mM bis-tris, 100 mM NaCl, 0.1% Tween 20, 0.5 mg/ml BSA, pH 7.0, without DTT; association 900 s, dissociation 1800 s; 1:1 model; conditions: both partners purified
T2 construct: Anamorsin (CIAPIN-1), human cDNA (Abgent) subcloned into pET28-a(+) between NdeI and XhoI; Without clusters; The vector adds a 6x his-tag and a thrombin cleavage site at the N-terminus; no cleavage is described; also called CIAPIN-1; source: E. coli BL-21 Codon Plus (DE3) RIL, purified (Ni-NTA, HiTrap Q anion exchange); 2Fe-2S cluster removed by the method of Kennedy and Beinert
T2 sequence (Q6FI81 whole entry): as above

Row | fold change of koff against apo-Anamorsin [1] | koff [2] | kon [2] | Binder
1 | 50 fold | 6.17e-05 s⁻¹ | 317 M⁻¹ s⁻¹ | mitoNEET (mNT), soluble domain (residues 33-108), holo (domain or fragment, human, UniProt Q9NZ45 33-108, looked up, mitoNEET (CISD1), human, soluble domain, residues 33-108; Homodimer; each protomer holds one 2Fe-2S cluster (3Cys:1His); at least 98% cluster occupancy; also called holo-mNT; CISD1; source: expressed and purified as described previously [19, 23]) RFYVKDHRNKAMINLHIQKDNPKIVHAFDMEDLGDKAVYCRCWRSKKFPFCDGAHTKHNEETGDNVGPLIIKKKET
2 | – | 0.0011 s⁻¹ | 783 M⁻¹ s⁻¹ | nutrient-deprivation autophagy factor-1 (NAF-1), soluble domain (residues 57-135), holo (domain or fragment, human, UniProt Q8N5K1 57-135, looked up, NAF-1 (CISD2), human, soluble domain, residues 57-135; Homodimer; each protomer holds one 2Fe-2S cluster (3Cys:1His); at least 98% cluster occupancy; also called holo-NAF-1; miner1; source: expressed and purified as described previously [19, 23]) RPFLPKKKQQKDSLINLKIQKENPKVVNEINIEDLCLTKAAYCRCWRSKTFPACDGSHNKHNELTGDNVGPLILKKKEV
